Assay results taken from US20240301071A1 (Alector, published 2024).

Assays:
soluble human FcgR2B [1] = target: T1, soluble human FcgR2B (human, UniProt P31994 46-217); experiment: BLI (Octet RED96), antibody captured by anti-human Fab-CH1, 100 nM soluble human FcR
T1 construct: also called CD32B
T1 sequence (looked up): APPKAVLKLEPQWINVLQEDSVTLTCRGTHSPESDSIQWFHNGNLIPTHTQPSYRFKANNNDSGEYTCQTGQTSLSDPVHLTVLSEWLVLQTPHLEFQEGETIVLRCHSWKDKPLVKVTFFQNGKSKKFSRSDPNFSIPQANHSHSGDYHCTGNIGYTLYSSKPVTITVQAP
Procedure: (§1) FcR affinity measurements for anti-SIRPA antibody Fc variants were obtained using bio-layer interferometry (BLI) on a Pall ForteBio Octet RED96 instrument. […] Single cycle kinetics were performed with 100 nM of soluble human FcRs flowed over captured antibody to record traces (300 s association time, 300 s dissociation time). Data analysis was performed using ForteBio Data Analysis Software, version 9.0. Standard kinetic buffer (PBS, 0.1% BSA, 0.02% Tween-20, pH 7.2) was used for the assay and for preparing reagents.

[2] = target: T2, soluble human FcgR2A R131 (human, UniProt P12318 36-218); experiment: as above
T2 construct: also called CD32A-R131
T2 sequence (looked up): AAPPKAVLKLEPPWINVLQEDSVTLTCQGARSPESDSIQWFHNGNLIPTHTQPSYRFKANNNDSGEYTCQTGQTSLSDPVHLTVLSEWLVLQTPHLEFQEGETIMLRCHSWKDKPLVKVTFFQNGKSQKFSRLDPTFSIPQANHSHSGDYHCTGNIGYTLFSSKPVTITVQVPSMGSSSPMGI
Procedure: as §1

soluble human FcgR1 = target: T3, soluble human FcgR1 (human, UniProt P12314 16-288); experiment: as above
T3 construct: also called FcγRI; CD64
T3 sequence (P12314 16-288 limits assumed): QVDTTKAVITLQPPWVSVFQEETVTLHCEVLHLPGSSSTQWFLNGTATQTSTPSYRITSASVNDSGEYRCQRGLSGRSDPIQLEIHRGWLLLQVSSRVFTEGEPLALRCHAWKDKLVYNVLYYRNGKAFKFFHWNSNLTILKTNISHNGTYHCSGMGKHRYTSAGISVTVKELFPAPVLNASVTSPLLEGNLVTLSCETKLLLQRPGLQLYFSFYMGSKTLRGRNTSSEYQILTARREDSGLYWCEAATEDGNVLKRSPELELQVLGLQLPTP
Procedure: as §1

[3] = target: T4, soluble human FcgR2A H131 (human, UniProt P12318 36-218); experiment: as above
T4 construct: also called CD32A-H131
T4 sequence (looked up): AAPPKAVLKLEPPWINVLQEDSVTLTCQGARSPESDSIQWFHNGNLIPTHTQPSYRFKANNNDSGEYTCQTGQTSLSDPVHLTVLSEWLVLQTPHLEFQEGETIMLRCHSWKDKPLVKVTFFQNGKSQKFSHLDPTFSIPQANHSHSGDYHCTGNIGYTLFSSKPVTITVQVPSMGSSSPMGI
Procedure: as §1

[4] = target: T5, human SIRPA on human macrophages (primary monocyte-derived macrophages; U937 line) (human, UniProt P78324 31-504); experiment: cell-based or functional assay
T5 sequence (P78324 31-370): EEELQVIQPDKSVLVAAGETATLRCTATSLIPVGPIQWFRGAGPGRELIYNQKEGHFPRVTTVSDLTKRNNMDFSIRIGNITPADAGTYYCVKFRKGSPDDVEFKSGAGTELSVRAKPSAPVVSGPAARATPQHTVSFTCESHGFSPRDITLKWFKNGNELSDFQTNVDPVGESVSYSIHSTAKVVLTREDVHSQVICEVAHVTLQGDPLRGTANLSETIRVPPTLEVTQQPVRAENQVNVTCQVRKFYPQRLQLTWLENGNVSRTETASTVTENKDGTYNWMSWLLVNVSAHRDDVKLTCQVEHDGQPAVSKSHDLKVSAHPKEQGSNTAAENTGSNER

[5] = target: T5, human SIRPA on human macrophages …; experiment: cell-based or functional assay; remark: listed apart in the source
[6] = target: T6, soluble human FcgR3A F158 (human, UniProt P08637 17-208); experiment: BLI (Octet RED96), antibody captured by anti-human Fab-CH1, soluble human FcR
T6 construct: also called CD16A F158
T6 sequence (P08637 17-208 limits assumed): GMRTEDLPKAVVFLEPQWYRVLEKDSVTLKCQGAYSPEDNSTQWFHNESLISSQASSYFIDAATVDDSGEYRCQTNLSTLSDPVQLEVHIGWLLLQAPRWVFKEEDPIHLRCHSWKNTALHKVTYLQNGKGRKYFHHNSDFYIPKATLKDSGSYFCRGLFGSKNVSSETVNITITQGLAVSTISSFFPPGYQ
Procedure: as §1

[7] = target: T7, soluble human FcgR3A V158 (human, UniProt P08637 17-208); experiment: as above
T7 construct: also called CD16A V158
T7 sequence (P08637 17-208 F176V limits assumed): as the sequence (P08637 17-208 limits assumed) above, with F160V counted along it
Procedure: as §1

soluble human FcgR2B [8] = target: T1, soluble human FcgR2B; experiment: as above
Procedure: as §1

[9] = target: T2, soluble human FcgR2A R131; experiment: as above
Procedure: as §1

[10] = target: T4, soluble human FcgR2A H131; experiment: as above
Procedure: as §1

B1: 3F9-22 hIgG1 NSLF (antibody)
heavy: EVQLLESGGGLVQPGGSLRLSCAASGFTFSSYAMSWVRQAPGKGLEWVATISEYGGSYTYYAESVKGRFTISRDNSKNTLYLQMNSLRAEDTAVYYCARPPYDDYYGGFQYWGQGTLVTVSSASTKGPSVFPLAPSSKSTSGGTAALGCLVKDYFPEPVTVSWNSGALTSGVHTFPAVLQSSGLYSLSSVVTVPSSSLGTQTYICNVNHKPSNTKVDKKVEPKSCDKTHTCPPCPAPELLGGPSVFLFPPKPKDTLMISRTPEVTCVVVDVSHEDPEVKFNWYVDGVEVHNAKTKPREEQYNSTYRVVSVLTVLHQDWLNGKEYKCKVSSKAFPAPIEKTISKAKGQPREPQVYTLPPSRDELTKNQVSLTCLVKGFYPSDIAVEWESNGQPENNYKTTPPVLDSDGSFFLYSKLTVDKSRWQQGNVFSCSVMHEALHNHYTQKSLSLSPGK
light: DIQLTQSPSSLSASVGDRVTITCRASKSVSSGGYSYMHWYQQKPGKAPKLLIYLASNLESGVPSRFSGSGSGTDFTLTISSVQPEDFATYYCQHNRELPVTFGQGTKLEIKRTVAAPSVFIFPPSDEQLKSGTASVVCLLNNFYPREAKVQWKVDNALQSGNSQESVTEQDSKDSTYSLSSTLTLSKADYEKHKVYACEVTHQGLSSPVTKSFNRGEC
notes: also called 3F9-22 NSLF; 3F9-22NSLF
B1: binds (soluble human FcgR2B [1]); binds [2]; binds (soluble human FcgR1). The binding result [3] was “binds”, the “EC50 (nM), phagocytosis of A375 cells by primary human macrophages” value [4] was 0.458 nM and the “Max, fold increase in phagocytosis over baseline activity” value [4] was 1.77 fold. For the same binder, the “IC50 (nM), SIRPA downregulation on human monocyte-derived macrophages” value [5] was 0.0451 nM, the “Max % DR, SIRPA, human monocyte-derived macrophages” value [5] was 74.6% and the binding result [6] was “no binding (tested: 100 nM)”. B1: no binding (tested: 100 nM) [7].

B2: 3F9-22 hIgG1 LALAPS (antibody)
heavy: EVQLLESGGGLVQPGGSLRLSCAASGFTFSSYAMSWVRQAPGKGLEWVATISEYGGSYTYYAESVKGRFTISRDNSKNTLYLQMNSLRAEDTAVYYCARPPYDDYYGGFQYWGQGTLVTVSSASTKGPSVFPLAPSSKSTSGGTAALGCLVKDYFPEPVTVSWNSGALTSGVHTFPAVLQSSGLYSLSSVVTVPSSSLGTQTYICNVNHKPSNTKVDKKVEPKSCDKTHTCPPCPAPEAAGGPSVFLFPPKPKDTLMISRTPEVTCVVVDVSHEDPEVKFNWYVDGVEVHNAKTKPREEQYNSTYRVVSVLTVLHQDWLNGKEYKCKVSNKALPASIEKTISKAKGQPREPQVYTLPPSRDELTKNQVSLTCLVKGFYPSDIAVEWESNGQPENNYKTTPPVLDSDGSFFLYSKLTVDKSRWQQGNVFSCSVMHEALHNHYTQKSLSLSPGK
light: DIQLTQSPSSLSASVGDRVTITCRASKSVSSGGYSYMHWYQQKPGKAPKLLIYLASNLESGVPSRFSGSGSGTDFTLTISSVQPEDFATYYCQHNRELPVTFGQGTKLEIKRTVAAPSVFIFPPSDEQLKSGTASVVCLLNNFYPREAKVQWKVDNALQSGNSQESVTEQDSKDSTYSLSSTLTLSKADYEKHKVYACEVTHQGLSSPVTKSFNRGEC
notes: also called 3F9-22 LALAPS
With B2 the binding result (soluble human FcgR1) was “binds”, the “IC50 (nM), SIRPA downregulation on human monocyte-derived macrophages” value [5] was 0.0447 nM and the “Max % DR, SIRPA, human monocyte-derived macrophages” value [5] was 41.6%. B2: no binding (tested: 100 nM) [6]; no binding (tested: 100 nM) [7]; no binding (tested: 100 nM) (soluble human FcgR2B [8]). B2: no binding (tested: 100 nM) [9]; no binding (tested: 100 nM) [10].
